Data taken from patent US20150023971A1.

What was measured:
[1] = target: T1, recombinant his-S-tagged pro-domain of human BDNF (residues Ala1-Arg110), from pET-30 Xa/LIC, E. coli (human) (UniProt P23560); assay: SPR competition, 390 nM Sortilin with 300 uM peptide over immobilised pro-dom-BDNF
T1 sequence: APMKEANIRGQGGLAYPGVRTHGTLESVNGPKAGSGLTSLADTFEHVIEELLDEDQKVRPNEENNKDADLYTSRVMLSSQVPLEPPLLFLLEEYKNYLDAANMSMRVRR

[2] = target: purified human Sortilin extracellular domain (produced in stably transfected CHO cells) (human) (UniProt Q99523); assay: SPR (Biacore), immobilised Sortilin extracellular domain (94 fmol/mm2); GST-pro-domain of proBDNF, upper panel of FIG. 7
Sequence of purified human Sortilin extracellular domain (produced in stably transfected CHO cells) (human) (Q99523 78-755 V650M limits assumed): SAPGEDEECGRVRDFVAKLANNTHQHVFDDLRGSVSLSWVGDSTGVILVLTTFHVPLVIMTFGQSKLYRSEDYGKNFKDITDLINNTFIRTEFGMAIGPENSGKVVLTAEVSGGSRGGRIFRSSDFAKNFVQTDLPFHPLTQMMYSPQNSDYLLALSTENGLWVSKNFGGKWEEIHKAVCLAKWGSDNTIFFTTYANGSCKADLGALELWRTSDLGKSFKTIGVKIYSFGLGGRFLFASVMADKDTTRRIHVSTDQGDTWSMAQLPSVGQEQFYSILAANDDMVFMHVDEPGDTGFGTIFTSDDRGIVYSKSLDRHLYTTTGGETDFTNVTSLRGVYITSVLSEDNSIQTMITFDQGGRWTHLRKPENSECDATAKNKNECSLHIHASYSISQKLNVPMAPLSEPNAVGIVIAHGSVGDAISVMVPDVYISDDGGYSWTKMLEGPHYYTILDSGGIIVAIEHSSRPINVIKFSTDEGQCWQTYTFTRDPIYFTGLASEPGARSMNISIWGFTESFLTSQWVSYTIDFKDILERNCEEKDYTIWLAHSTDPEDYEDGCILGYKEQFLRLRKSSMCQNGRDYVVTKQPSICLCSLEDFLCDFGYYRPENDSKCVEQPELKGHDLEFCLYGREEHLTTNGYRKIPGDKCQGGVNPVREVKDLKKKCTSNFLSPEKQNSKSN

Row | Binder | percent inhibition of Sortilin binding to pro-dom-BDNF [1] | Kd [2]
1 | RSSDFAKNFVQTDLPF [sortilin peptide … (synthetic, soluble)] | 66% | –
2 | pro-domain of human BDNF fused to GST (glutathione S-transferase), produced in E. coli (protein, not shown: a dimerising Fc or GST) APMKEANIRGQGGLAYPGVRTHGTLESVNGPKAGSGLTSLADTFEHVIEELLDEDQKVRPNEENNKDADLYTSRVMLSSQVPLEPPLLFLLEEYKNYLDAANMSMRVRR | – | 58 nM
